Measurements: patent US5422095A, “Low molecular weight polysaccharide complexes for radiation diagnosis” (Nihon Medi-Physics Co., Ltd., priority 1991, dated 1995)

Tests used:
[1] = Relaxivity of GPEN-DTES-Gd and GTRI-DTES-Gd, proton relaxation time by 6.35T NMR (in vitro test, Test 1); type: physicochemical; settings: for R1 (relaxivity on T1): 24° to 26° C., calculated from relaxation times
Method: Relaxivity of GPEN-DTES-Gd and GTRI-DTES-Gd (in vitro test)
An appropriate amount of GPEN-DTES-Gd and GTRI-DTES-Gd were dissolved in distilled water. The relation to water proton exposed to these compounds was determined as a proton relaxation time (T1 and T2, msec) at room temperature (24° to 26° C.) using NMR (6.35T, manufactured by Nihondenshi K. K., Japan).
GPEN-DTES-Gd (2.3 mM) shortened remarkably the T1 value of water about 60 times and the T2 value of water 85 times. And GTRI-DTES-Gd (2.9 mM) shortened remarkably the T1 value of water about 70 times and the T2 value about 85 times. The relaxivity on T1 and T2 [each R1 and R2, (mM.S)^-1 ] were calculated based on the values in Tables 1 and 2.

[2] = DTPA-Gd lower than Gd itself; cited from earlier work
[3] = in vivo; cited from earlier work
[4] = test system: heart; experiment: Contrast enhancement of the heart in rat at 1 hour after intravenous administration, MRI (in vivo test, Test 3); design: species or system Sprague-Dawley female rat; settings: 1 hour after i.v. administration, 0.094 mmol/kg Gd vs 0.1 mmol/kg DTPA-Gd, 1.5T, T1 weighted spin echo
Method: Contrast enhancement of the heart in rat at 1 hour after intravenously administration of GPEN-DTES-Gd (in vivo test)
A solution of GPEN-DTES-Gd (Gd concentration: 75.1 mM) (0.094 mmol/kg in terms of Gd) was administered to a thiopental anesthetized Sprague-Dawley female rat (214 g, 9-weeks old) through a cannula fixed to femoral vein. At 1 hour after administration, the animal was sacrificed by administration of pentobarbital solution (1 ml) through the above cannula, fixed at prone position in the magnetic field of a MRI spectrometer. MRI measurement (transverse sectional view) of the chest region including the heart was carried out.
As a control, DTPA-Gd (MAGNEVIST®) was administered to a Sprague-Dawleyfemale rat (body weight: 204 g, 9-weeks old) through a cannula fixed at femoral vein (0.1 mmol/kg) and the measurement (transverse sectional view) of the chest region including the heart was carried out as described above.
The apparatus was SIGMA (manufactured by GE, U.S.A.) with magnetic field intensity of 1.5T and, as an imaging coil, a 26 cm .phi.bird-cage type head QD coil was used. Imaging was carried out according to spin echo method of T1 weighted (TR/TE, 600/30 msec) under the condition of 10 mm in slice thickness, a resolution of 256×128.

[5] = test system: blood; experiment: Relaxation time of GPEN-DTES-Gd in blood in mouse after intravenous administration (ex vivo test, Test 2); design: species or system ICR female mouse; settings: 0.025 mmol/kg in terms of Gd, 15 minutes after administration
Method: Relaxation time of GPEN-DTES-Gd in blood in mouse after intravenous administration (ex vivo test)
GPEN-DTES-Gd (Gd concentration: 75 mM) (0.025 mmol/kg in terms of Gd) was administered to a thiopental anesthetized ICR female mouse (body weight: 44 g) through the tail vein. At 15 minutes after administration, the blood was taken from the aorta descendence, and the relaxation time (T1, msec) of the blood at room temperature (24° to 26° C.) was determined with a 6.35T NMR apparatus (manufactured by Nihondenshi K. K., Japan).
As a control, blood was taken from the aorta descendence of a thiopental anesthetized ICR female mouse (body weight: 55 g) and, according to the same manner, the relaxation time was determined.

[6] = 2.3 mM in distilled water, 6.35T, room temperature (24° to 26° C.)

In the case of `O=C([O-])CN(CCN(CC(=O)[O-])CC(=O)O)CCN(CC(=O)[O-])CC(=O)O.[Gd+3]` [DTPA-Gd, (Diethylenetriaminepentaacetic acid)gadolinate], the “R1 (relaxivity on T1)” value ([1]; water, 6.35T) is listed as 3.9 (mM · S)^-1, the “relaxivity relative to Gd itself” value [2] is listed as “about 1/2” and the “excretion into the urine (in words)” value [3] is listed as “rapidly excreted into the urine after administration”.

In the case of “(galactosamino-pentamer)-[1-(p-isothiocyanatebenzyl)-diethylenetriaminepentaacetic acid]gadolinate [GPEN-DTES-Gd]”, the “Shortening of the T1 value of water” value ([1]; 2.3 mM) is reported as “about 60 times”, the “Shortening of the T2 value of water” value ([1]; 2.3 mM) is reported as 85 times and the T1 relaxation time [1, 6] is reported as 55 ms. The T2 relaxation time [1, 6] was 26 ms, the “in vitro relaxation effect” value ([1]; in words, compared with DTPA-Gd) was “predominantly higher than that of DTPA-Gd” and the “T1 relaxivity in water” value ([1]; magnetic field intensity 6.35T, 25° C.) was 7.6 (mM.S)^-1. The “R1 (relaxivity on T1)” value ([1]; water, 6.35T) was 7.6 (mM · S)^-1, the “T1 relaxivity relative to DTPA-Gd” value ([1]; water, 6.35T, 25° C.) was “about two” and the “MRI signal intensity / contrast effect in the heart relative to DTPA-Gd (MAGNEVIST®)” value [4] was “about 1.8 times”. For the same compound, the “T1 relaxation time effect in blood compared with control mouse” value [5] was “about 2.3 times” and the T1 in blood ([5]; tail vein, 6.35T, 24° to 26° C.) was 769 ms.
